# Reference: publication PMC9871967, “A hnRNPA2B1 agonist effectively inhibits HBV and SARS-CoV-2 omicron in vivo” (Protein & Cell, 2022)
# Molecular target: the molecule itself
# Assay: native gel or EMSA; HepG2.2.15 cells treated with PAC5 (10 μmol/L) for the indicated time; cell lysates on native PAGE, hnRNPA2B1-dimerization assay by immunoblot
protein,measurement,value
"heterogeneous nuclear ribonucleoprotein A2B1 (natural protein, UniProt P22626 1-353, looked up, heterogeneous nuclear ribonucleoprotein A2B1, endogenous in human hepatoma cell lines, precipitated and detected with anti-hnRNPA2B1 (Santa Cruz sc-32316); Endogenous protein; also called hnRNPA2B1; source: endogenous, HepG2.2.15, HepAD38 and HepG2 cell lysates) MEKTLETVPLERKKREKEQFRKLFIGGLSFETTEESLRNYYEQWGKLTDCVVMRDPASKRSRGFGFVTFSSMAEVDAAMAARPHSIDGRVVEPKRAVAREESGKPGAHVTVKKLFVGGIKEDTEEHHLRDYFEEYGKIDTIEIITDRQSGKKRGFGFVTFDDHDPVDKIVLQKYHTINGHNAEVRKALSRQEMQEVQSSRSGRGGNFGFGDSRGGGGNFGPGPGSNFRGGSDGYGSGRGFGDGYNGYGGGPGGGNFGGSPGYGGGRGGYGGGGPGYGNQGGGYGGGYDNYGGGNYGSGNYNDFGNYNQQPSNYGPMKSGNFGGSRNMGGPYGGGNYGPGGSGGSGGYGGRSRY",stoichiometry N,2
